# Laboratory results reported in patent US20200079833A1 (AstraZeneca / MedImmune, published 2020).
# Starred links: 1 amine or outer side, 2 acyl side, 3 side chain; linkers in the order of their positions; H or OH if unused. Non-standard residues stand in square brackets, D forms with d. Groups on a side chain read outwards from the residue. Primed or numbered codes have the meaning given here. No end group written: not given here. *: point of attachment. γGlu = O=C(O)[C@H](CCC(=O)[*:2])N[*:1]; Stearoyl = CCCCCCCCCCCCCCCCCC(=O)*; Palmitoyl = CCCCCCCCCCCCCCCC(=O)*; αMeF = C[C@](N)(Cc1ccccc1)C(=O)O; αMeK = C[C@](N)(CCCCN)C(=O)O; Lauroyl = CCCCCCCCCCCC(=O)*; αMeS = C[C@](N)(CO)C(=O)O; PEG2′ = not defined here; Aib = CC(C)(N)C(=O)O
# T1: glucose-dependent insulinotropic peptide (gastric inhibitory polypeptide) receptor (GIPR), primary cAMP assay … (human, UniProt P48546 22-466)
# T1 sequence (looked up): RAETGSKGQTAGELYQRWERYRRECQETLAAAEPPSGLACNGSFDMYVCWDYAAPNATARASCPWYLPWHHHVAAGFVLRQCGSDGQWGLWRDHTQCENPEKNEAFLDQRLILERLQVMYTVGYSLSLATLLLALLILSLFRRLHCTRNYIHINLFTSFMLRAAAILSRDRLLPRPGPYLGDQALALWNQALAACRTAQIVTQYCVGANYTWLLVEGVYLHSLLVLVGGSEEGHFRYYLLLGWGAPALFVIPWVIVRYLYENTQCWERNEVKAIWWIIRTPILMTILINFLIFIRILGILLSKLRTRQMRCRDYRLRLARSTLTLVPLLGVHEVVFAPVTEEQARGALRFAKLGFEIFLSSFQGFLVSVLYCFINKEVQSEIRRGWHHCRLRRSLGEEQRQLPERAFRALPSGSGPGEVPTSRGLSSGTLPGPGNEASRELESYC
# T2: GLP-1R in the INS1e assay (UniProt P32301 22-463, limits assumed)
# T2 sequence (looked up): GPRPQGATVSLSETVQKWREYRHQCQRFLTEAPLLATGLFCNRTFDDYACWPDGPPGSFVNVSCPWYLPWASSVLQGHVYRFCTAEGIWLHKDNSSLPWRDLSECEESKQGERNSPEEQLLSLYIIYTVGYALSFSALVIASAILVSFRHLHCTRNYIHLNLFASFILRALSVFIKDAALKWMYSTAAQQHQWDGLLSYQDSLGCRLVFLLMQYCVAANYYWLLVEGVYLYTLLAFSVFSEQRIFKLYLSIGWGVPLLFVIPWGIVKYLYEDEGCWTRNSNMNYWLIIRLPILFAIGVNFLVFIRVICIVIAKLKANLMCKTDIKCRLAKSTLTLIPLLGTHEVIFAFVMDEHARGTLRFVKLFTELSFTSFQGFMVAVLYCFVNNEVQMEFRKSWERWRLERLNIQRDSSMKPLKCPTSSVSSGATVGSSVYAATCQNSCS
# T3: glucose-dependent insulinotropic peptide (gastric inhibitory polypeptide) receptor (GIPR), primary cAMP assay (human, UniProt P48546 22-466)
# T3 sequence (looked up): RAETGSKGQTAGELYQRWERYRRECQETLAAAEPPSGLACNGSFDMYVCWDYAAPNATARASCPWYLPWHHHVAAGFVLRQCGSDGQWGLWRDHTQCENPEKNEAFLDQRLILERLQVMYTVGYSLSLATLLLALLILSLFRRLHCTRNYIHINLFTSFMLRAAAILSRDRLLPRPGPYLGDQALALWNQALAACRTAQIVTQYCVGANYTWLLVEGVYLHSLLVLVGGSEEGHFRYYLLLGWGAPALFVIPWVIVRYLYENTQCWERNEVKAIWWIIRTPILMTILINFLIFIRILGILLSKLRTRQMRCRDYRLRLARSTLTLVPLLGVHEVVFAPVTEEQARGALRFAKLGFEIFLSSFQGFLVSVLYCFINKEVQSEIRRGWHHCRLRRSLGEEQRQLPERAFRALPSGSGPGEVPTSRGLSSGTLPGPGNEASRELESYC
# T4: GLP-1R in the INS1e assay (UniProt P32301 22-463, limits assumed)
# T4 sequence (looked up): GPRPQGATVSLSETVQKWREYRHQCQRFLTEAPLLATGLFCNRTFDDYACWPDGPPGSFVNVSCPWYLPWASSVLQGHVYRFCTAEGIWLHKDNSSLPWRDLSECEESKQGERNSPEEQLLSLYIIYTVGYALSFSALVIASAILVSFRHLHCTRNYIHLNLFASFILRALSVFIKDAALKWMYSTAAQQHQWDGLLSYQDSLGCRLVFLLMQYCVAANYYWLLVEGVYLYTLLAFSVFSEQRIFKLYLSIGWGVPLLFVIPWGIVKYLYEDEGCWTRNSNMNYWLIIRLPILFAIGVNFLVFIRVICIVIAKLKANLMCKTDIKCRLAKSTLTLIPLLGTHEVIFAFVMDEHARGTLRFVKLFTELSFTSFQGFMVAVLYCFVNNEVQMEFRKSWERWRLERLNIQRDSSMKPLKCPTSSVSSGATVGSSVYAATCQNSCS
# Experiments:
# Assay in all cases: cell-based or functional assay
# [1] = molecular target: GLP-1 receptor (GLP-1R), primary cAMP assay cell line (human, UniProt P43220 24-463)
# [2] = molecular target: glucagon receptor (GCGR), primary cAMP assay cell line (human, UniProt P47871 26-477)
# Chain of glucagon receptor (GCGR), primary cAMP assay cell line (P47871 26-477): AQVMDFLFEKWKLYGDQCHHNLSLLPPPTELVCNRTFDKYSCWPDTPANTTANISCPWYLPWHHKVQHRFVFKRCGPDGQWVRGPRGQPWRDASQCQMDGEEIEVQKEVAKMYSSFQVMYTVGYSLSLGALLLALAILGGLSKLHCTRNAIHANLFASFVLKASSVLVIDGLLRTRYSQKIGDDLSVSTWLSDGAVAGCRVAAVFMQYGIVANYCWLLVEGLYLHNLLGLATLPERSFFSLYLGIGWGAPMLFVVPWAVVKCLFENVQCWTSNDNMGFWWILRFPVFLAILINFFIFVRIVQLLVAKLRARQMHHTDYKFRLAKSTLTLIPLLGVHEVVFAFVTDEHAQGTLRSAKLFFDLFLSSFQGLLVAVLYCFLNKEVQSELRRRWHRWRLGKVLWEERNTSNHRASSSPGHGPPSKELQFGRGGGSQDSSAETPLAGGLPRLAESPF
# [3] = molecular target: T1, glucose-dependent insulinotropic …
# [4] = molecular target: T2, GLP-1R in the INS1e assay
# [5] = molecular target: GLP-1 receptor (GLP-1R), primary cAMP assay (human, UniProt P43220 24-463)
# [6] = molecular target: glucagon receptor (GCGR), primary cAMP assay (human, UniProt P47871 26-477)
# Chain of glucagon receptor (GCGR), primary cAMP assay (P47871 26-477): as above
# [7] = molecular target: T3, glucose-dependent insulinotropic …
# [8] = molecular target: T4, GLP-1R in the INS1e assay; remark: listed apart in the source
Binder,"cAMP Primary assay EC50, Mean pM GLP-1R [1]","cAMP Primary assay EC50, n1 [1]","cAMP Primary assay EC50, n2 [1]","cAMP Primary assay EC50, n1 [2]","cAMP Primary assay EC50, n2 [2]","cAMP Primary assay EC50, n1 [3]","cAMP Primary assay EC50, n2 [3]","cAMP INS1e assay EC50, Mean pM GLP-1R [4]","cAMP INS1e assay EC50, n1 [4]","cAMP INS1e assay EC50, n2 [4]",Primary assay EC50 (cAMP) Mean [5],"Primary assay EC50 (cAMP), n1 [5]","Primary assay EC50 (cAMP), n2 [5]","Primary assay EC50 (cAMP), n1 [6]","Primary assay EC50 (cAMP), n2 [6]","Primary assay EC50 (cAMP), n1 [7]","Primary assay EC50 (cAMP), n2 [7]",INS1e assay EC50 (cAMP) Mean [8],INS1e assay EC50 (cAMP) n1 [8],INS1e assay EC50 (cAMP) n2 [8]
H[Aib]EGS[αMeF]TSDV[αMeS]SK([PEG2′-PEG2′-γGlu-Palmitoyl])LEGEAA[αMeK]E[αMeF]IAK([PEG2′-PEG2′-γGlu-Palmitoyl])VVEGG-NH2 [SEQ ID NO: 409],,,,,,,,,,,0.0361 nM,0.0395 nM,0.0326 nM,21.5 nM,21.5 nM,21.5 nM,21.5 nM,0.216 nM,0.183 nM,0.249 nM
H[Aib]EGS[αMeF]TSDV[αMeS]SYK([PEG2′-PEG2′-γGlu-Lauroyl])EGEAA[αMeK]K([PEG2′-PEG2′-γGlu-Lauroyl])FIK([PEG2′-PEG2′-γGlu-Lauroyl])FVVEGG-NH2 [SEQ ID NO: 454],43.7 pM,0.0221 nM,0.0652 nM,19.7 nM,19.7 nM,19.7 nM,19.7 nM,5540 pM,4.1 nM,6.99 nM,,,,,,,,,,
H[Aib]EGS[αMeF]TSDV[αMeS]SK([PEG2′-PEG2′-γGlu-Stearoyl])LEGEAA[αMeK]E[αMeF]IAK([PEG2′-PEG2′-γGlu-Stearoyl])VVEGG-NH2 [SEQ ID NO: 410],,,,,,,,,,,0.187 nM,0.248 nM,0.126 nM,21.5 nM,21.5 nM,21.5 nM,21.5 nM,0.78 nM,0.698 nM,0.862 nM
H[Aib]EGS[αMeF]TSDV[αMeS]SK([PEG2′-PEG2′-γGlu-Lauroyl])LEGEAA[αMeK]K([PEG2′-PEG2′-γGlu-Lauroyl])FIK([PEG2′-PEG2′-γGlu-Lauroyl])FVVEGG-NH2 [SEQ ID NO: 450],49 pM,0.028 nM,0.07 nM,19.9 nM,19.9 nM,19.9 nM,19.9 nM,6810 pM,6.38 nM,7.24 nM,,,,,,,,,,

# More lines, now with the values ahead:
"cAMP Primary assay EC50, Mean pM GLP-1R [1]","cAMP Primary assay EC50, n1 [1]","cAMP Primary assay EC50, n2 [1]","cAMP Primary assay EC50, n1 [2]","cAMP Primary assay EC50, n2 [2]","cAMP Primary assay EC50, n1 [3]","cAMP Primary assay EC50, n2 [3]","cAMP INS1e assay EC50, Mean pM GLP-1R [4]","cAMP INS1e assay EC50, n1 [4]","cAMP INS1e assay EC50, n2 [4]",Primary assay EC50 (cAMP) Mean [5],"Primary assay EC50 (cAMP), n1 [5]","Primary assay EC50 (cAMP), n2 [5]","Primary assay EC50 (cAMP), n1 [6]","Primary assay EC50 (cAMP), n2 [6]","Primary assay EC50 (cAMP), n1 [7]","Primary assay EC50 (cAMP), n2 [7]",INS1e assay EC50 (cAMP) Mean [8],INS1e assay EC50 (cAMP) n1 [8],INS1e assay EC50 (cAMP) n2 [8],Binder
30.3 pM,0.0254 nM,0.0351 nM,20.2 nM,20.2 nM,20.2 nM,20.2 nM,4020 pM,4.46 nM,3.57 nM,,,,,,,,,,,H[Aib]EGS[αMeF]TSDV[αMeS]SK([PEG2′-PEG2′-γGlu-Lauroyl])LEGK([PEG2′-PEG2′-γGlu-Lauroyl])AA[αMeK]EFIAK([PEG2′-PEG2′-γGlu-Lauroyl])VVEGG-NH2 [SEQ ID NO: 464]
41.4 pM,0.0363 nM,0.0464 nM,20 nM,20 nM,20 nM,20 nM,3370 pM,3.07 nM,3.67 nM,,,,,,,,,,,H[Aib]EGS[αMeF]TSDK([PEG2′-PEG2′-γGlu-Lauroyl])SSYLEGEAA[αMeK]K([PEG2′-PEG2′-γGlu-Lauroyl])FIAK([PEG2′-PEG2′-γGlu-Lauroyl])VVEGG-NH2 [SEQ ID NO: 458]
55.4 pM,0.0493 nM,0.0615 nM,19.8 nM,19.8 nM,19.8 nM,19.8 nM,8920 pM,9.92 nM,7.91 nM,,,,,,,,,,,H[Aib]EGS[αMeF]TSDV[αMeS]SYK([PEG2′-PEG2′-γGlu-Lauroyl])EK([PEG2′-PEG2′-γGlu-Lauroyl])EAA[αMeK]EFIAK([PEG2′-PEG2′-γGlu-Lauroyl])VVEGG-NH2 [SEQ ID NO: 467]
22.4 pM,0.0172 nM,0.0275 nM,20.2 nM,20.2 nM,20.2 nM,20.2 nM,3200 pM,3.86 nM,2.55 nM,,,,,,,,,,,H[Aib]EGS[αMeF]TSDV[αMeS]SK([PEG2′-PEG2′-γGlu-Lauroyl])LEGEAA[αMeK]K([PEG2′-PEG2′-γGlu-Lauroyl])FIAK([PEG2′-PEG2′-γGlu-Lauroyl])VVEGG-NH2 [SEQ ID NO: 466]
47 pM,0.0376 nM,0.0564 nM,20 nM,20 nM,20 nM,20 nM,4560 pM,5.4 nM,3.73 nM,,,,,,,,,,,H[Aib]EGS[αMeF]TSDVSK([PEG2′-PEG2′-γGlu-Lauroyl])YLEGEAA[αMeK]K([PEG2′-PEG2′-γGlu-Lauroyl])FIAK([PEG2′-PEG2′-γGlu-Lauroyl])VVEGG-NH2 [SEQ ID NO: 462]
87.4 pM,0.0548 nM,0.12 nM,19.8 nM,19.8 nM,19.8 nM,19.8 nM,4910 pM,6.74 nM,3.08 nM,,,,,,,,,,,H[Aib]EGS[αMeF]TSDK([PEG2′-PEG2′-γGlu-Lauroyl])SSYLEK([PEG2′-PEG2′-γGlu-Lauroyl])EAA[αMeK]EFIAK([PEG2′-PEG2′-γGlu-Lauroyl])VVEGG-NH2 [SEQ ID NO: 455]
